# In paper PMC12317982:
# B1: EMC1-FLAG [human] / SLC3A2, Strep-tagged [not stated] (parent)
# chain 1: YEDQVGKFDWRQQYVGKVKFASLEFSPGSKKLVVATEKNVIAALNSRTGEILWRHVDKGTAEGAVDAMLLHGQDVITVSNGGRIMRSWETNIGGLNWEITLDSGSFQALGLVGLQESVRYIAVLKKTTLALHHLSSGHLKWVEHLPESDSIHYQMVYSYGSGVVWALGVVPFSHVNIVKFNVEDGEIVQQVRVSTPWLQHLSGACGVVDEAVLVCPDPSSRSLQTLALETEWELRQIPLQSLDLEFGSGFQPRVLPTQPNPVDASRAQFFLHLSPSHYALLQYHYGTLSLLKNFPQTALVSFATTGEKTVAAVMACRNEVQKSSSSEDGSMGSFSEKSSSKDSLACFNQTYTINLYLVETGRRLLDTTITFSLEQSGTRPERLYIQVFLKKDDSVGYRALVQTEDHLLLFLQQLAGKVVLWSREESLAEVVCLEMVDLPLTGAQAELEGEFGKKADGLLGMFLKRLSSQLILLQAWTSHLWKMFYDARKPRSQIKNEINIDTLARDEFNLQKMMVMVTASGKLFGIESSSGTILWKQYLPNVKPDSSFKLMVQRTTAHFPHPPQCTLLVKDKESGMSSLYVFNPIFGKWSQVAPPVLKRPILQSLLLPVMDQDYAKVLLLIDDEYKVTAFPATRNVLRQLHELAPSIFFYLVDAEQGRLCGYRLRKDLTTELSWELTIPPEVQRIVKVKGKRSSEHVHSQGRVMGDRSVLYKSLNPNLLAVVTESTDAHHERTFIGIFLIDGVTGRIIHSSVQKKAKGPVHIVHSENWVVYQYWNTKARRNEFTVLELYEGTEQYNATAFSSLDRPQLPQVLQQSYIFPSSISAMEATITERGITSRHLLIGLPSGAILSLPKALLDPRRPEIPTEQSREENLIPYSPDVQIHAERFINYNQTVSRMRGIYTAPSGLESTCLVVAYGLDIYQTRVYPSKQFDVLKDDYDYVLISSVLFGLVFATMITKRLAQVKLLNRAWR
# chain 2: MSQDTEVDMKEVELNELEPEKQPMNAASGAAMSLAGAEKNGLVKIKVAEDEAEAAAAAKFTGLSKEELLKVAGSPGWVRTRWALLLLFWLGWLGMLAGAVVIIVRAPRCRELPAQKWWHTGALYRIGDLQAFQGHGAGNLAGLKGRLDYLSSLKVKGLVLGPIHKNQKDDVAQTDLLQIDPNFGSKEDFDSLLQSAKKKSIRVILDLTPNYRGENSWFSTQVDTVATKVKDALEFWLQAGVDGFQVRDIENLKDASSFLAEWQNITKGFSEDRLLIAGTNSSDLQQILSLLESNKDLLLTSSYLSDSGSTGEHTKSLVTQYLNATGNRWCSWSLSQARLLTSFLPAQLLRLYQLMLFTLPGTPVFSYGDEIGLDAAALPGQPMEAPVMLWDESSFPDIPGAVSANMTVKGQSEDPGSLLSLFRRLSDQRSKERSLLHGDFHAFSAGPGLFSYIRHWDQNERFLVVLNFGDVGLSAGLQASDLPASASLPAKADLLLSTQPGREEGSPLELERLKLEPHEGLLLRFPYAA
# B2: EMC1-FLAG [human] / TMEM38B, Strep-tagged [not stated] (parent)
# chain 1: B1 chain 1
# chain 2: MDSPWDELALAFSRTSMFPFFDIAHYLVSVMAVKRQPGAAALAWKNPISSWFTAMLHCFGGGILSCLLLAEPPLKFLANHTNILLASSIWYITFFCPHDLVSQGYSYLPVQLLASGMKEVTRTWKIVGGVTHANSYYKNGWIVMIAIGWARGAGGTIITNFERLVKGDWKPEGDEWLKMSYPAKVTLLGSVIFTFQHTQHLAISKHNLMFLYTIFIVATKITMMTTQTSTMTFAPFEDTLSWMLFGWQQPFSSCEKKSEAKSPSNGVGSLASKPVDVASDNVKKKHTKKNE
# B3: EMC1-FLAG [human] / BCAP31, Strep-tagged [not stated] (parent)
# chain 1: B1 chain 1
# chain 2: MSLQWTAVATFLYAEVFVVLLLCIPFISPKRWQKIFKSRLVELLVSYGNTFFVVLIVILVLLVIDAVREIRKYDDVTEKVNLQNNPGAMEHFHMKLFRAQRNLYIAGFSLLLSFLLRRLVTLISQQATLLASNEAFKKQAESASEAAKKYMEENDQLKKGAAVDGGKLDVGNAEVKLEEENRSLKADLQKLKDELASTKQKLEKAENQVLAMRKQSEGLTKEYDRLLEEHAKLQAAVDGPMDKKEE
# Variants of: B1
# Experiment: co-IP and immunoblot (quantified)
# Settings: with SLC3A2, Strep-tagged;; read off a plot
row,ratio to parent,Variant
1,0.87,chain 1 F948A F952A
2,0.51,chain 1 V941K S944K S945K

# Variants of: B2
# Experiment: co-IP and immunoblot (quantified)
# Settings: with TMEM38B, read off a plot
row,ratio to parent,Variant
1,0.78,chain 1 V941K S944K S945K
2,0.4,chain 1 F948A F952A

# Variants of: B3
# Experiment: co-IP and immunoblot (quantified)
# Settings: with BCAP31, Strep-tagged;; read off a plot
row,ratio to parent,Variant
1,0.75,chain 1 F948A F952A
2,0.57,chain 1 V941K S944K S945K
